The results in this text go back to EP1053001B1.

The test addresses T1, calcitonin receptors (human T47D / MCF7 breast carcinoma cells) (human), P30988.
T1 chain: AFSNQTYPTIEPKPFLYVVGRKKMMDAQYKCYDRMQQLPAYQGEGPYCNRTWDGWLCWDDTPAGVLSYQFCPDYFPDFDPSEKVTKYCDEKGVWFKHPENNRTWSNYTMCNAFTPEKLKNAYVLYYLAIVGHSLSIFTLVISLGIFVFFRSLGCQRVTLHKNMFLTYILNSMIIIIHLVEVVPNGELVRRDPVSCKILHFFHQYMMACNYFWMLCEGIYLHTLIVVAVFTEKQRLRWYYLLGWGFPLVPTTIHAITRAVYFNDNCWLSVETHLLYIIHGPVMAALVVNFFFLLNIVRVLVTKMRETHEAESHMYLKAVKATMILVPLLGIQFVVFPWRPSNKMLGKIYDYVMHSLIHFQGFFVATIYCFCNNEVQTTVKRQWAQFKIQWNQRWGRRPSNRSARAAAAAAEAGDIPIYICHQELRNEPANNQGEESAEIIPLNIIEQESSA
As to the kind of experiment: radioligand competition vs 125I-salmon calcitonin, human T47D cell membranes. On the technique in general: Displacement assays read how much labelled ligand stays bound in the presence of the test substance.

In general, IC50 refers to the point on the concentration scale where inhibition reaches its midpoint.

Non-standard residues stand in square brackets, D forms with d. No end group written: not given here. *: point of attachment. Aib = CC(C)(N)C(=O)O; For = O=C*

On to VL[Aib]K(For)LSQEL[Aib]K(For)LQTYPRTNTGSNTY-NH2 [Compound 8], for which the IC50 was 93 nM.
